In patent publication US20260355338 (published 2026) one finds Kd data, which are given here for 21 molecules.

Sequences and labels used below:
B1: EP107-3-3014 (1361-H) (antibody)
chain 1: QVQLVQSGAEVKKPGASVKVSCKASGYTFTNYHIHWVRQAPGQRLEYIGWIYPGNVYIQYNEKFKGRATLTADKSASTAYMELSSLRSEDTAVYYCARDGPWFAYWGQGTLVTVSS
chain 2: QGQSGQGSLPCSYMHPYCFYNSGGGSSGGAVGLLAPPGGLSGRSDNIGGSDIVLTQTPLSLSVTPGQPASISCRSSRSLLHSDGFTYLYWFLQKPGQSPQLLIYQTSNLASGVPDRFSSSGSGTDFTLKISRVEAEDVGVYYCAQNLELPNTFGQGTKLEIK
B2: EP102-3014 (1565-Y) (antibody)
chain 1: B1 chain 1 with H33Y, P101Y
chain 2: QGQSGQGSPACSDRYYQTCVLNGGGSSGGAVGLLAPPGGLSGRSDNIGGSDIVLTQTPLSLSVTPGQPASISCRSSRSLLHSDGFTYLYWFLQKPGQSPQLLIYQTSNLASGVPDRFSSSGSGTDFTLKISRVEAEDVGVYYCAQNLELPNTFGQGTKLEIK
B3: EP107-1-3014 (1361-H) (antibody)
chain 1: B1 chain 1
chain 2: B1 chain 2 with L9R
B4: EP107-2-3014 (1361-H) (antibody)
chain 1: B1 chain 1
chain 2: B1 chain 2 with L9H
B5: EP03-3014 (1361-H) (antibody)
chain 1: B1 chain 1
chain 2: QGQSGQGHYCHSRTDTITHCNAGGGSSGGAVGLLAPPGGLSGRSDNIGGSDIVLTQTPLSLSVTPGQPASISCRSSRSLLHSDGFTYLYWFLQKPGQSPQLLIYQTSNLASGVPDRFSSSGSGTDFTLKISRVEAEDVGVYYCAQNLELPNTFGQGTKLEIK
B6: EP104-3014 (1565-Y) (antibody)
chain 1: B1 chain 1 with H33Y, P101Y
chain 2: QGQSGQGTTRCEHYWFTCPLSPGGGSSGGAVGLLAPPGGLSGRSDNIGGSDIVLTQTPLSLSVTPGQPASISCRSSRSLLHSDGFTYLYWFLQKPGQSPQLLIYQTSNLASGVPDRFSSSGSGTDFTLKISRVEAEDVGVYYCAQNLELPNTFGQGTKLEIK
B7: EP106-3014 (1361-H) (antibody)
chain 1: B1 chain 1
chain 2: QGQSGQGFCSGYSPSVLPSCLMGGGSSGGAVGLLAPPGGLSGRSDNIGGSDIVLTQTPLSLSVTPGQPASISCRSSRSLLHSDGFTYLYWFLQKPGQSPQLLIYQTSNLASGVPDRFSSSGSGTDFTLKISRVEAEDVGVYYCAQNLELPNTFGQGTKLEIK
B8: EP04-3014 (1361-H) (antibody)
chain 1: B1 chain 1
chain 2: QGQSGQGWCPRLFDRPSMGCPTGGGSSGGAVGLLAPPGGLSGRSDNIGGSDIVLTQTPLSLSVTPGQPASISCRSSRSLLHSDGFTYLYWFLQKPGQSPQLLIYQTSNLASGVPDRFSSSGSGTDFTLKISRVEAEDVGVYYCAQNLELPNTFGQGTKLEIK
B9: EP07-3014 (1361-H) (antibody)
chain 1: B1 chain 1
chain 2: QGQSGQGHSGCPRLFDRCSAPAGGGSSGGAVGLLAPPGGLSGRSDNIGGSDIVLTQTPLSLSVTPGQPASISCRSSRSLLHSDGFTYLYWFLQKPGQSPQLLIYQTSNLASGVPDRFSSSGSGTDFTLKISRVEAEDVGVYYCAQNLELPNTFGQGTKLEIK
B10: EP103-3014 (1565-Y) (antibody)
chain 1: B1 chain 1 with H33Y, P101Y
chain 2: QGQSGQGMSCVVDRFDRQCPHLGGGSSGGAVGLLAPPGGLSGRSDNIGGSDIVLTQTPLSLSVTPGQPASISCRSSRSLLHSDGFTYLYWFLQKPGQSPQLLIYQTSNLASGVPDRFSSSGSGTDFTLKISRVEAEDVGVYYCAQNLELPNTFGQGTKLEIK
B11: EP108-3014 (1361-H) (antibody)
chain 1: B1 chain 1
chain 2: B1 chain 2 with S8L, L9T, P10R, S12T, Y13I, M14A, F19Y, S22Y
B12: EP07-3014 (1565-Y) (antibody)
chain 1: B1 chain 1 with H33Y, P101Y
chain 2: B9 chain 2
B13: EP05-3014 (1565-Y) (antibody)
chain 1: B1 chain 1 with H33Y, P101Y
chain 2: QGQSGQGWWPPCQGGAWCEQRIGGGSSGGAVGLLAPPGGLSGRSDNIGGSDIVLTQTPLSLSVTPGQPASISCRSSRSLLHSDGFTYLYWFLQKPGQSPQLLIYQTSNLASGVPDRFSSSGSGTDFTLKISRVEAEDVGVYYCAQNLELPNTFGQGTKLEIK
B14: EP01-3014 (1361-H) (antibody)
chain 1: B1 chain 1
chain 2: QGQSGQGPLMTCSDYYTCKNNLGGGSSGGAVGLLAPPGGLSGRSDNIGGSDIVLTQTPLSLSVTPGQPASISCRSSRSLLHSDGFTYLYWFLQKPGQSPQLLIYQTSNLASGVPDRFSSSGSGTDFTLKISRVEAEDVGVYYCAQNLELPNTFGQGTKLEIK
B15: EP107-3014 (1361-H) (antibody)
chain 1: B1 chain 1
chain 2: B1 chain 2 with L9K
B16: EP02-3014 (1565-Y) (antibody)
chain 1: B1 chain 1 with H33Y, P101Y
chain 2: B10 chain 2 with M8L, V11T, V12H, D13S, F15Y, R17M, Q18H, L22M
B17: EP105-3014 (1361-H) (antibody)
chain 1: B1 chain 1
chain 2: B7 chain 2 with F8D, S10T, S19A, L21R, M22V
B18: EP110-3014 (1361-H) (antibody)
chain 1: B1 chain 1
chain 2: QGQSGQGPRPHCAILRQCLAATGGGSSGGAVGLLAPPGGLSGRSDNIGGSDIVLTQTPLSLSVTPGQPASISCRSSRSLLHSDGFTYLYWFLQKPGQSPQLLIYQTSNLASGVPDRFSSSGSGTDFTLKISRVEAEDVGVYYCAQNLELPNTFGQGTKLEIK
B19: EP11-3014 (1361-H) (antibody)
chain 1: B1 chain 1
chain 2: QGQSGQGFICPTLYDRPHCMHTGGGSSGGAVGLLAPPGGLSGRSDNIGGSDIVLTQTPLSLSVTPGQPASISCRSSRSLLHSDGFTYLYWFLQKPGQSPQLLIYQTSNLASGVPDRFSSSGSGTDFTLKISRVEAEDVGVYYCAQNLELPNTFGQGTKLEIK
B20: EP02-3014 (1361-H) (antibody)
chain 1: B1 chain 1
chain 2: B10 chain 2 with M8L, V11T, V12H, D13S, F15Y, R17M, Q18H, L22M
B21: muEpCAM23 (antibody, V domains shown)
VH: EVKLEESGPALVKPGASVRISCKASGYTFTNYYIHWVKQRPGQGLDYIGWIYPGNVYIQYNEKFKGKATLTADKSSSTAFMQLSSLTSEDSAVYFCARDGPWFAYWGQGTLVTVSS
VL: DIVLTQTPFSNPVTLGTSASISCRSSKSLLHSDGFTYLYWFLQKPGQSPHLLIYQTSNLASGVPDRFSSSGSGTDFTLRISRVEAEDVGVYYCAQNLELPNTFGGGTKLEIK

Positions count from the first letter of the chain named.

The first test deals with T1, human EpCAM-mFc (human).
T1 chain: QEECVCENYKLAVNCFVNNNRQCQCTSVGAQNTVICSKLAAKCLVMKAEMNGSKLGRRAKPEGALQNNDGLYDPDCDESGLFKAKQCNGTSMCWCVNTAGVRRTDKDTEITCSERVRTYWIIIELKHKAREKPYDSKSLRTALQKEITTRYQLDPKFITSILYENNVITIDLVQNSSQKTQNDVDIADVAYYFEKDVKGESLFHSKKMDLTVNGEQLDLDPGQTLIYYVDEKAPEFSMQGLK
As to the kind of experiment: ELISA. On the technique in general: An ELISA detects its analyte on a solid surface through an enzyme-linked reagent.
For B1, the Kd is 44 nM. B2: the Kd stood at 72.5 nM. B3 displayed a Kd of 31 nM. In the case of B4, the Kd was found to be 44 nM. The molecule B5 yielded a Kd of 4 nM. Same read-out and setting: in the case of B6 it was 126 nM.

In turn, B7 had a Kd of 348 nM.

Molecule B8 displayed a Kd of 1.9 nM.

On to B9, for which the Kd stood at 1.5 nM. The molecule B10 yielded a Kd of 140 nM. For the molecule B11, the Kd was 58 nM. Regarding B12, the Kd worked out at 37.6 nM. Same read-out and setting: under B13 stands 8.6 nM. On the same count and under the same terms, under B14 stands 18.2 nM; under B15, 147 nM; under B16, 34.5 nM. In turn, B17 returned a Kd of 201 nM. Molecule B18 returned a Kd of 336 nM. In turn, B19 showed a Kd of 30.5 nM. Same read-out and setting: in the case of B20 it was 0.44 nM.

Another test concerns the target T2, EpCAM on HSC2 cells (human, UniProt P16422).
T2 chain: T1 chain
The experiment in a line: FACS, HSC2 cells, apparent, low end of range.
Regarding B21, the Kd stood at 0.38 nM.

The next test has as its target T2, EpCAM on HSC2 cells. The experiment in a line: FACS, HSC2 cells, apparent, high end of range.
With B21, the Kd came out at 0.79 nM.
